For four substances, Kd, IC50 and Ki results are on record in article PMC4414810.

pIC50, pKd, pKi: −log10 of the molar value.

Holding throughout (assay): fluorescence polarisation
(In general: In fluorescence polarisation assays a small probe gives low polarisation when free and higher when bound to something large.)

The target in assay [1] is 5-FAM labeled HalA2 core peptide (Bacillus halodurans C-125).
Assay [2] has as its target HalM2 (haloduracin lanthipeptide synthetase) (Bacillus halodurans C-125).
The target in assay [3] is fluorescein-labeled HalA2 (Bacillus halodurans C-125).
Assay [4] has as its target fluorescently-labeled, fully-modified HalA2 peptide (Bacillus halodurans C-125).

For the substance “HalCE2 (HalA2 leader peptide attached to the N-terminus of HalM2 through a (GS)15 linker) (enzyme)”, in assay [1], the pKd (usually −log10 of the Kd, conventionally taken in molar units) was 4.07.

For unlabeled HalA2 peptide, in assay [2], the pIC50 – broadly, −log10 of the IC50, conventionally taken in molar units – was 5.92 and the pKi (commonly the negative decadic logarithm of the Ki, by convention in mol/L) was 5.92. With “HalM2 (haloduracin lanthipeptide synthetase) (enzyme)”, the figures for the pKd in assay [3] and in assay [4] were 5.72 and 4.98, respectively. In assay [2], unlabeled HalA2 leader peptide had a pIC50 of 5.25 and a pKi of 5.26.
